This assay addresses Mercuric ion reductase (MerA) from Metallosphaera sedula (Metallosphaera sedula). As to the kind of experiment: crystal structure; hanging drop; 0.085M TRIS (pH 8.5), 15% v/v glycerol, 14% w/v PEG400, 0.19M LiSO4, 20 mg/mL protein; data collected at 100 K; bound FAD; space group P22(1)2(1), two monomers per asymmetric unit.

By stoichiometry N is commonly meant the number of molecules, sites or subunits per partner or assembly.

Consider “Mercuric ion reductase (MerA) from Metallosphaera sedula (enzyme)”, for which the stoichiometry N came out at 2.
